Data on one molecule can be found in publication PMC11871066 (2025).

The test deals with Negative control peptide 2014 (1907 with L145E and L152E) (UniProt P49023 141-153, S143 (i,i + 7 staple position), i,i + 7 all-hydrocarbon staple as in 1907). Put plainly: SPR.

B1: Biotinylated AviTag FAK FAT protein (domain or fragment)
chain: MAAAYLDPNLNHTPNSSTKTHLGTGMERSPGAMERVLKVFHYFESNSEPTTWASIIRHGDATDVRGIIQKIVDSHKVKHVACYGFRLSHLRSEEVHWLHVDMGVSSVREKYELAHPPEEWKYELRIRYLPKGFLNQFTEDKPTLNFFYQQVKSDYMLEIADQVDQEIALKLGCLEIRRSYWEMRGNALEKKSNYEVLEKDVGLKRFFPKSLLDSVKAKTLRKLIQQTFRQFANLNREESILKFFEILSPVYRFDKECFKCALGSSWIISVELAIGPEEGISYLTDKGCNPTHLADFTQVQTIQYSNSEDKDRKGMLQLKIAGAPEPLTVTAPSLTIAENMADLIDGYCRLVNGTSQSFIIRPQKEGERALPSIPKLANSEKQGMRTHAVSVSETDDYAEIIDEEDTYTMPSTRDYEIQRERIELGRCIGEGQFGDVHQGIYMSPENPALAVAIKTCKNCTSDSVREKFLQEALTMRQFDHPHIVKLIGVITENPVWIIMELCTLGELRSFLQVRKYSLDLASLILYAYQLSTALAYLESKRFVHRDIAARNVLVSSNDCVKLGDFGLSRYMEDSTYYKASKGKLPIKWMAPESINFRRFTSASDVWMFGVCMWEILMHGVKPFQGVKNNDVIGRIENGERLPMPPNCPPTLYSLMTKCWAYDPSRRPRFTELKAQLSTILEEEKAQQEERMRMESRRQATVSWDSGGSDEAPPKPSRPGYPSPRSSEGFYPSPQHMVQTNHYQVSGYPGSHGITAMAGSIYPGQASLLDQTDSWNHRPQEIAMWQPNVEDSTVLDLRGIGQVLPTHLMEERLIRQQQEMEEDQRWLEKEERFLKPDVRLSRGSIDREDGSLQGPIGNQHIYQPVGKPDPAAPPKKPPRPGAPGHLGSLASLSSPADSYNEGVKLQPQEISPPPTANLDRSNDKVYENVTGLVKAVIEMSSKIQPAPPEEYVPMVKEVGLALRTLLATVDETIPLLPASTHREIEMAQKLLNSDLGELINKMKLAQQYVMTSLQQEYKKQMLTAAHALAVDAKNLLDVIDQARLKMLGQTRPH
modifications: biotin (biotinylated AviTag)
Turning to B1, the Kd was greater than 200 µM.

The term Kd denotes the free concentration of one partner at which half of the binding sites on the other are occupied at equilibrium, for simple one-to-one binding.
